Data reported in patent US6410255B1, “Optical probes and assays” (priority 1999, dated 2002).
Where two headings read alike, the source gives them in different places. *1 amine or outer side, *2 acyl side, *3 side chain or, on linkers, in order; H or OH if unused. Where a SMILES comes first, the peptide text is derived from it. Bridges are numbered along the chain shown (N, C = ends). Where no end group is shown, it is not given here. [ ]: non-standard residue; d: D form. Adda = CO[C@@H](Cc1ccccc1)[C@@H](C)/C=C(C)/C=C/[C@H](N[*:1])[C@H](C)C(=O)[*:2]; dAsp(3S-Me) = C[C@H](C(=O)[*:3])[C@@H](N[*:1])C(=O)[*:2]; d(γGlu) = O=C(O)[C@@H](CCC(=O)[*:2])N[*:1]; pS = N[C@@H](COP(=O)(O)O)C(=O)O; NMeDha = C=C(NC)C(=O)O

Tests used:
[1] = target: T1, chymotrypsin (Bos taurus, UniProt P00766); test: Chymotrypsin cleavage of optical probe with or without ERK phosphorylation; assay type: biochemical; details: for 460/530 Emission Ratio, Negative Control (No Active Kinase) / 460/530 Emission Ratio, Positive Control (Active Kinase): 4 nM chymotrypsin
Description: This substrate (100 μM) was phosphorylated by incubation at 30 C for 3 hours in a 100 μL reaction containing 500 ng ERK (Biomol) and 500 μM ATP in a buffer consisting of 50 mM Tris-Cl, pH 7.5, 10 mM MgCl2, 1 mM EGTA, 2 mM DTT, and 0.01% Brij-35. To test the proteolytic sensitivity of phosphorylated and non-phosphorylated samples, 2 μL of the mock (no kinase) or kinase reaction was diluted to 100 μL in a buffer containing 50 mM HEPES, pH 7.5, 10 mM CaCl2, and 0.01% Brij-35, and incubated with chymotrypsin at a concentration of 4 nM. Cleavage reactions were monitored on the Cytofluor for 1 hr. […] The maximum fold difference in 460/530 ratio was about 15.2 and occurred after 30 minutes of cleavage.

[2] = target: T1, chymotrypsin; test: Control: effect of inhibitor on chymotrypsin cleavage of non-phosphorylated probe; assay type: biochemical
Description: (§1) To determine if the optical probe protein phosphatase assay could detect inhibitors of PP1, the phosphatase assay was performed in the presence or absence of 1 μM microcystin-LR, a potent inhibitor of PP1. Phosphatase assays were set up as described above except the phosphatase was allowed to pre-incubate with microcystin-LR for 10 minutes before the addition of phosphorylated or non-phosphorylated optical probes (SEQ. ID. NO: 23). PP1 reactions were incubated at 30 C for 1 hour and then diluted to 100 μL in 50 mM HEPES, pH 7.5 followed by the addition of chymotrypsin to 0.2 μM. Fluorescence values were measured on the Cytofluor after a 2 hour incubation at room temperature as described above. After treatment of the phosphorylated optical probe with PP1 followed by chymotrypsin, the 460/530 ratio was 13.2±0.2. […] Thus, the present invention could be used to detect inhibitors of PP1 activity.
(§2) To determine if the optical probe phosphatase assay could detect inhibitors of PP2A, the phosphatase assay was performed in the presence or absence of 100 nM microcystin-LR. PP2A assays were set up as described above, and were incubated at 30 C for 2 hours. Reactions were diluted to 100 μL with 50 mM HEPES, pH 7.5 followed by the addition of chymotrypsin to 0.2 μM. Fluorescence values were measured on the Cytofluor after a 1.5 hour incubation at room temperature. As described above, treatment of the phosphorylated optical probe (SEQ. ID. NO: 23) with PP2A followed by chymotrypsin gave a final 460/530 ratio of 8.8±0.1. […] Thus, the optical probe based phosphatase assay can detect inhibitors of PP2A activity.

[3] = target: PP1 (Homo sapiens, UniProt P62136); test: PP1 inhibitor assay with optical probe; assay type: biochemical
Description: as §1

[4] = target: PP2A (Homo sapiens, UniProt P67775); test: PP2A inhibitor assay with optical probe; assay type: biochemical
Description: as §2

[5] = target: T1, chymotrypsin; test: Chymotrypsin cleavage of optical probe with or without casein kinase 1 phosphorylation; assay type: biochemical
Description: To measure casein kinase 1 activity, an optical probe was designed as described above. In this case, the kinase substrate was designed so that the point of phosphorylation was located at the P′2 position (underlined in SEQ. I.D. NO: 17 below) with respect to the scissile bond cleaved by chymotrypsin, which enables the creation of a recognition motif suitable for casein kinase 1. A substrate peptide ([…], SEQ. ID. NO: 17) was synthesized and labeled with fluorescein isothiocyanate at the N-terminus and 7-hydroxycoumarin-3-carboxamide at the C-terminus as described in Example 1.
Samples of phosphorylated and non-phosphorylated optical probes were prepared and tested as described in Example 1. In this case, complete phosphorylation of the optical probe (1 μM) was obtained after room temperature incubation for 15 to 30 minutes in the presence of 500 Units of casein kinase 1 (New England BioLabs) in 50 mM Tris-Cl, pH 7.5, 10 mM MgCl2, 5 mM DTT, and 200 μM ATP.
To determine the relative proteolytic sensitivity of phosphorylated and non-phosphorylated optical probes, samples of both were incubated with various concentrations of chymotrypsin and the cleavage monitored by measuring the 460/530 emission ratio as described in Example 1.

[6] = target: protein phosphatase I (PPI) (Homo sapiens, UniProt P62136); test: Protein phosphatase I dephosphorylation of optical probe; assay type: biochemical
Description: To determine if the optical probes could be used to detect serine/threonine phosphatase activities, samples of the casein kinase 1 specific phosphorylated optical probes were prepared and treated with various serine/threonine protein phosphatases. To do this, the casein kinase 1 optical probe ([…], SEQ. ID. NO: 17) (100 μM) was phosphorylated to completion with CKI (2000 units) in a 100 μL reaction containing 200 μM ATP for 5 hours at 30° C. A mock kinase reaction was performed which contained no ATP for preparation of control, non-phosphorylated optical probes. The resistance of the phosphorylated optical probe to chymotrypsin cleavage (data not shown) confirmed complete phosphorylation of the CKI-treated optical probe. Phosphorylated and non-phosphorylated samples of the optical probe (2 μM) were incubated in a 50 μL volume with or without 1 unit of the serine/threonine phosphatase protein phosphatase I (PPI) for 2 hours at 30° C. in a buffer consisting of 50 mM Tris-Cl, pH 7.0, 0.1 mM EDTA, 5 mM DTT, 0.01% Brij-35, and 1 mM MnCl2. The reactions were diluted to 100 μL with 50 mM HEPES, pH 7.5, incubated with chymotrypsin (0.2 μM) for 1 hour at room temperature, and fluorescence values were measured on the Cytofluor as described above. Before chymotrypsin addition all reactions had similar 460/530 ratios of about 1.2.

[7] = target: protein phosphatase 2A (PP2A) (Homo sapiens, UniProt P67775); test: Protein phosphatase 2A dephosphorylation of optical probe; assay type: biochemical; details: 1.5 hour chymotrypsin incubation
Description: The optical probes were also evaluated to determine if they could be used to measure protein phosphatase 2A (PP2A) activity. Phosphorylated and non-phosphorylated samples of the CKI optical probes ([…]) were prepared and incubated with 0.03 units of PP2A as described above, except MnCl2 was not included. After dilution and addition of chymotrypsin as described above, fluorescence values were measured using a 96 well plate reader (Cytofluor). After a 1.5 hour chymotrypsin incubation, the 460/530 emission ratio of the phosphorylated optical probe was 1.8±0.2 (Table 18).

[8] = target: T2, v-Abl kinase (Abelson murine leukemia virus, UniProt P00521); test: v-Abl kinase phosphorylation of optical probe, fluorescence readout after chymotrypsin; assay type: biochemical
T2 construct: purchased Calbiochem

[9] = target: T1, chymotrypsin; test: Chymotrypsin cleavage of phosphorylated and non-phosphorylated tyrosine kinase optical probes; assay type: biochemical, bovine; set-up: purchased Calbiochem 230832
[10] = no inhibitor, chymotrypsin 0.2 μM, 2 hour
[11] = no inhibitor, chymotrypsin 0.2 μM, 1.5 hour

T2 sequence (P00521 whole entry): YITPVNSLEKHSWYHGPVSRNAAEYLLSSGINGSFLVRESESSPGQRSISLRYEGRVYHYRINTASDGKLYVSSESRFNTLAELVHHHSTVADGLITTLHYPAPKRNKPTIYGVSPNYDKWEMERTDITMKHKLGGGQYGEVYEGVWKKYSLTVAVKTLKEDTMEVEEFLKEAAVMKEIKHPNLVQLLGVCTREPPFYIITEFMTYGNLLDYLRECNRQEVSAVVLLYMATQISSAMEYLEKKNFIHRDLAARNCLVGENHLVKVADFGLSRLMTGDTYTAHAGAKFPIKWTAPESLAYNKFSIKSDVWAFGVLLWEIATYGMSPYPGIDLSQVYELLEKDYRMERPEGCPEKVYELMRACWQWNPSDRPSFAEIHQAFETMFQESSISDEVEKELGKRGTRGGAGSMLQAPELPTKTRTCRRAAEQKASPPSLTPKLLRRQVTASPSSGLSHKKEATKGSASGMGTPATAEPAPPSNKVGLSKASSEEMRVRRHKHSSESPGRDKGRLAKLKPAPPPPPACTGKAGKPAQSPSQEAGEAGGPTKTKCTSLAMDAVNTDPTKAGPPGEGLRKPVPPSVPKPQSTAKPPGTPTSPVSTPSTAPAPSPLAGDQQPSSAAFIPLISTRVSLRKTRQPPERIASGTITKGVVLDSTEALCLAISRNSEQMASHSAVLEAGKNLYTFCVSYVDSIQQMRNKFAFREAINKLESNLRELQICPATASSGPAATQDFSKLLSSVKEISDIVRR
Sequence of protein phosphatase I (PPI) (P62136 whole entry): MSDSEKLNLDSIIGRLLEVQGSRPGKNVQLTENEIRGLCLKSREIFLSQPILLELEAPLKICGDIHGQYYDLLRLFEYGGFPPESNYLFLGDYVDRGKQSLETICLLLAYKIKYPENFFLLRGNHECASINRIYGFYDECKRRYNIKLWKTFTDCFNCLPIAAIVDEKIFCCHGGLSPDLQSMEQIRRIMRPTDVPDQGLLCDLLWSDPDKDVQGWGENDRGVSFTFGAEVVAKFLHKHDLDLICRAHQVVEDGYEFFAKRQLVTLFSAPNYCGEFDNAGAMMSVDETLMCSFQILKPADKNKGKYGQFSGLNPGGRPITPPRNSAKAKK
Sequence of PP1 (P62136 whole entry): as above
Sequence of protein phosphatase 2A (PP2A) (P67775 whole entry): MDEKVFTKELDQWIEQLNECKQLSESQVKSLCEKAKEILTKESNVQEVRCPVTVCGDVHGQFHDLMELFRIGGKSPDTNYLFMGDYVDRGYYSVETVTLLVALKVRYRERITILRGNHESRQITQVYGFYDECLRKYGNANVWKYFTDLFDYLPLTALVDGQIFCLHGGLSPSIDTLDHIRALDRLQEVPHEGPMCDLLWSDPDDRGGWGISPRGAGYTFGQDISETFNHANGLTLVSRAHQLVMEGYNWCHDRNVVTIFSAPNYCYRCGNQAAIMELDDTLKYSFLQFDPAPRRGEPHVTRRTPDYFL
Sequence of PP2A (P67775 whole entry): as above

VAPFSPGGRAK [optical probe designed as a substrate for extracellular signal-regulated kinase (ERK)]
460/530 Emission Ratio, Negative Control (No Active Kinase) ([1]; time of cleavage 0 min): 0.28
460/530 Emission Ratio, Positive Control (Active Kinase) ([1]; time of cleavage 0 min): 0.33
460/530 Emission Ratio, Negative Control (No Active Kinase) ([1]; time of cleavage 10 min): 4.17
460/530 Emission Ratio, Positive Control (Active Kinase) ([1]; time of cleavage 10 min): 0.44
460/530 Emission Ratio, Negative Control (No Active Kinase) ([1]; time of cleavage 20 min): 7.56
460/530 Emission Ratio, Positive Control (Active Kinase) ([1]; time of cleavage 20 min): 0.56
460/530 Emission Ratio, Negative Control (No Active Kinase) ([1]; time of cleavage 30 min): 10.03
460/530 Emission Ratio, Positive Control (Active Kinase) ([1]; time of cleavage 30 min): 0.66
460/530 Emission Ratio, Negative Control (No Active Kinase) ([1]; time of cleavage 40 min): 11.71
460/530 Emission Ratio, Positive Control (Active Kinase) ([1]; time of cleavage 40 min): 0.78
460/530 Emission Ratio, Negative Control (No Active Kinase) ([1]; time of cleavage 50 min): 12.73
460/530 Emission Ratio, Positive Control (Active Kinase) ([1]; time of cleavage 50 min): 0.89
460/530 Emission Ratio, Negative Control (No Active Kinase) ([1]; time of cleavage 60 min): 13.40
460/530 Emission Ratio, Positive Control (Active Kinase) ([1]; time of cleavage 60 min): 1.00
Fold difference in ratios ([1]; time of cleavage 0 min): 0.85
Fold difference in ratios ([1]; time of cleavage 10 min): 9.45
Fold difference in ratios ([1]; time of cleavage 20 min): 13.55
Fold difference in ratios ([1]; time of cleavage 30 min): 15.16
Fold difference in ratios ([1]; time of cleavage 40 min): 14.99
Fold difference in ratios ([1]; time of cleavage 50 min): 14.34
Fold difference in ratios ([1]; time of cleavage 60 min): 13.36

C=C1C(=O)N[C@H](C)C(=O)N[C@@H](CC(C)C)C(=O)N[C@@H](C(=O)O)[C@H](C)C(=O)N[C@@H](CCCNC(=N)N)C(=O)N[C@@H](/C=C/C(C)=C/[C@H](C)[C@H](Cc2ccccc2)OC)[C@H](C)C(=O)N[C@@H](C(=O)O)CCC(=O)N1C [microcystin-LR, reference compound] (R[Adda][d(γGlu)][NMeDha][dA]L[dAsp(3S-Me)]-OH; lactam N-7)
460/530 ratio After Chymotrypsin, Non-phosphorylated Optical probe + PP1 + microcystin-LR [2]: 13.3 ± 0.2
460/530 ratio After Chymotrypsin, Non-phosphorylated Optical probe + PP2A + microcystin-LR [2]: 11.1 ± 0.2
460/530 ratio Before Chymotrypsin, Non-phosphorylated Optical probe + PP2A + microcystin-LR [2]: 1.4 ± 0.1
inhibition of chymotrypsin cleavage [2]: did not inhibit
460/530 ratio After Chymotrypsin, Phosphorylated Optical probe + PP1 + microcystin-LR [3]: 2.8 ± 0.1
inhibition of PP1 activity [3]: almost completely inhibited
460/530 ratio After Chymotrypsin, Phosphorylated Optical probe + PP2A + microcystin-LR [4]: 1.9 ± 0.1
460/530 ratio Before Chymotrypsin, Phosphorylated Optical probe + PP2A + microcystin-LR [4]: 1.4 ± 0.1
inhibition of PP2A activity [4]: completely inhibited

GDQDYLSLDK (GDQDYL[pS]LDK; also: FITC and hydroxycoumarin carboxamide labels, places not given here) [casein kinase 1 optical probe, peptide labeled with fluorescein isothiocyanate and 7-hydroxycoumarin-3-carboxamide; casein kinase 1 substrate]
460/530 Emission Ratio, Negative Control (No Active Kinase) ([5]; chymotrypsin 0.04 μM): 3.0
460/530 Emission Ratio, Positive Control (Active Kinase Only) ([5]; chymotrypsin 0.04 μM): 1.2
Fold difference in ratios ([5]; chymotrypsin 0.04 μM): 2.5
460/530 Emission Ratio, Negative Control (No Active Kinase) ([5]; chymotrypsin 0.1 μM): 6.6
460/530 Emission Ratio, Positive Control (Active Kinase Only) ([5]; chymotrypsin 0.1 μM): 1.4
Fold difference in ratios ([5]; chymotrypsin 0.1 μM): 4.7
460/530 Emission Ratio, Negative Control (No Active Kinase) ([5]; chymotrypsin 0.2 μM): 10.9
460/530 Emission Ratio, Positive Control (Active Kinase Only) ([5]; chymotrypsin 0.2 μM): 1.7
Fold difference in ratios ([5]; chymotrypsin 0.2 μM): 6.4
460/530 Emission Ratio, Negative Control (No Active Kinase) ([5]; chymotrypsin 0.3 μM): 12.3
460/530 Emission Ratio, Positive Control (Active Kinase Only) ([5]; chymotrypsin 0.3 μM): 1.9
Fold difference in ratios ([5]; chymotrypsin 0.3 μM): 6.5
460/530 Emission Ratio, Negative Control (No Active Kinase) ([5]; chymotrypsin 0.4 μM): 14.3
460/530 Emission Ratio, Positive Control (Active Kinase Only) ([5]; chymotrypsin 0.4 μM): 2.3
Fold difference in ratios ([5]; chymotrypsin 0.4 μM): 6.2
460/530 Emission Ratio, Negative Control (No Active Kinase) ([5]; chymotrypsin 1.0 μM): 15.4
460/530 Emission Ratio, Positive Control (Active Kinase Only) ([5]; chymotrypsin 1.0 μM): 3.8
Fold difference in ratios ([5]; chymotrypsin 1.0 μM): 4.1
460/530 Emission Ratio, Negative Control (No Active Kinase) ([5]; chymotrypsin 2.0 μM): 15.6
460/530 Emission Ratio, Positive Control (Active Kinase Only) ([5]; chymotrypsin 2.0 μM): 6.0
Fold difference in ratios ([5]; chymotrypsin 2.0 μM): 2.6
460/530 Emission Ratio After Chymotrypsin, Phosphorylated Control + Phosphatase (PP1) ([6]; 1 unit PPI, 2 hours at 30° C., chymotrypsin 0.2 μM, 1 hour): 10.0
460/530 ratio before chymotrypsin addition ([6]; all reactions): about 1.2
460/530 Emission ratio After Chymotrypsin, Non-phosphorylated Control ([6]; chymotrypsin 0.2 μM, 1 hour): 9.8
460/530 Emission ratio After Chymotrypsin, Phosphorylated Control ([6]; chymotrypsin 0.2 μM, 1 hour): 2.0
460/530 Emission ratio After Chymotrypsin, Phosphorylated Control + Phosphatase (PP2A) ([7]; 0.03 units PP2A): 8.8 ± 0.1
460/530 Emission ratio After Chymotrypsin, Non-phosphorylated Control [7]: 11.0 ± 0.1
460/530 Emission ratio After Chymotrypsin, Phosphorylated Control [7]: 1.8 ± 0.2
460/530 ratio After Chymotrypsin, Non-phosphorylate Optical probe + PP1 [3, 10]: 13.2 ± 0.1
460/530 ratio After Chymotrypsin, Phosphorylated Optical probe + PP1 [3, 10]: 13.2 ± 0.2
460/530 ratio Before Chymotrypsin, Non-phosphorylate Optical probe + PP2A ([4]; no inhibitor): 1.4 ± 0.0
460/530 ratio Before Chymotrypsin, Phosphorylated Optical probe + PP2A ([4]; no inhibitor): 1.3 ± 0.0
460/530 ratio After Chymotrypsin, Non-phosphorylate Optical probe + PP2A [4, 11]: 11.1 ± 0.1
460/530 ratio After Chymotrypsin, Phosphorylated Optical probe + PP2A [4, 11]: 8.8 ± 0.1

Nc1ncnc2c1ncn2[C@@H]1O[C@H](COP(=O)(O)OP(=O)(O)OP(=O)(O)O)[C@@H](O)[C@H]1O [ATP]
Km ([8]; v-Abl, abl optical probe as substrate, read-out: apparent Km for ATP): 8 µM

AEAIYAAPL [abl substrate]
turnover of the optical probe by v-Abl [8]: 9.5 s⁻¹
Km ([8]; read-out: apparent Km for the substrate): 40 µM
difference in emission ratios of phosphorylated (non-cleaved) and non-phosphorylated (cleaved) substrate [9]: 30 fold
